Measured values reported in US20230134571A1 (INTERNATIONAL AIDS VACCINE INITIATIVE, published 2023).

Key:
Experiment in all cases: cell-based or functional assay
[1] = biological target: HIV Env of isolate Ce1176_A3 (clade C) (HIV)
[2] = biological target: HIV Env of isolate 6545.v4.c1 (clade AC) (HIV)
[3] = biological target: HIV Env of isolate TRO.11 (clade B) (HIV)
[4] = biological target: HIV Env of isolate T250-4 a.k.a. CRF250 (clade AG) (HIV)
[5] = biological target: HIV Env of isolate 6041.v3.c23 (clade AC) (HIV)
[6] = biological target: HIV Env of isolate 231965.c01 (clade D) (HIV)
[7] = biological target: HIV Env of isolate 3817.v2.c59 (clade CD) (HIV)
[8] = biological target: HIV Env of isolate REJO4541.67 (clade B) (HIV)
[9] = biological target: HIV Env of isolate Q769.d22 (clade A) (HIV)
[10] = biological target: HIV Env of isolate 191955_A11 (clade A) (HIV)
[11] = biological target: HIV Env of isolate Ce2010_F5 (clade C) (HIV)
[12] = biological target: HIV Env of isolate ZM197M.PB7 (clade C) (HIV)
[13] = biological target: HIV Env of isolate 246FC1G (clade C) (HIV)
[14] = biological target: HIV Env of isolate Du422.1 (clade C) (HIV)
[15] = biological target: HIV Env of isolate BJOX010000.06.2 (clade AE) (HIV)
[16] = biological target: HIV Env of isolate Ce0682_E4 (clade C) (HIV)
[17] = biological target: HIV Env of isolate Ce0393_C3 (clade C) (HIV)
[18] = biological target: HIV Env of isolate ZM135M.PL10a (clade C) (HIV)
[19] = biological target: HIV Env of isolate 191084B7-19 (clade A) (HIV)
[20] = biological target: HIV Env of isolate CNE21 (clade BC) (HIV)
[21] = biological target: HIV Env of isolate CNE5 (clade AE) (HIV)
[22] = biological target: HIV Env of isolate Ce2060_G9 (clade C) (HIV)
[23] = biological target: HIV Env of isolate Q259.d2.17 (clade A) (HIV)
[24] = biological target: HIV Env of isolate 6811.v7.c18 (clade CD) (HIV)
[25] = biological target: HIV Env of isolate CNE20 (clade BC) (HIV)

Row | Binder | IC50 (µg/ml) with constrains [1] | IC50 (µg/ml) with constrains [2] | IC80 (µg/ml) with constrains [2] | IC50 (µg/ml) with constrains [3] | IC50 (µg/ml) with constrains [4] | IC80 (µg/ml) with constrains [4] | IC50 (µg/ml) with constrains [5] | IC80 (µg/ml) with constrains [5] | IC50 (µg/ml) with constrains [6] | IC50 (µg/ml) with constrains [7] | IC50 (µg/ml) with constrains [8] | IC50 (µg/ml) with constrains [9] | IC80 (µg/ml) with constrains [9] | IC50 (µg/ml) with constrains [10] | IC80 (µg/ml) with constrains [10] | IC50 (µg/ml) with constrains [11] | IC50 (µg/ml) with constrains [12] | IC50 (µg/ml) with constrains [13] | IC50 (µg/ml) with constrains [14] | IC50 (µg/ml) with constrains [15] | also measured
1 | ePGDM13 (antibody, V domains shown) VH: QAQLVQSGPEVRKPGTSVKVSCKNPGNTLTTYDLHWVRQVPGQGLQWMGWISHEGDKKVIVERFKAKVTIDWDRSTNTAYLQLSGLTSEDTAVYYCAKGSKHRLRDYALYDEDGALNWAVDVDYLANLEFWGQGTAVTVSS VL: DIVLTQSPLSLSVTPGESASISCKSSHSLQHGDRNNYLAWYVQKPGRSPQLLLDLASERASGVPDRFSGSGSEKDFTLKISRVETEDVGTYYCMQGRESPWTFGQGTKVDIK | 0.031 µg/mL | 0.076 µg/mL | 0.305 µg/mL | 0.352 µg/mL | 0.035 µg/mL | 0.14 µg/mL | 0.007 µg/mL | 0.029 µg/mL | 0.015 µg/mL | 14 µg/mL | 0.002 µg/mL | 0.002 µg/mL | 0.01 µg/mL | 0.008 µg/mL | 0.033 µg/mL | > 100 µg/mL | 0.06 µg/mL | > 100 µg/mL | 27.5 µg/mL | 0.979 µg/mL | IC80 (µg/ml) with constrains [15]: 3.92 µg/mL; IC50 (µg/ml) with constrains [16]: 0.011 µg/mL; IC50 (µg/ml) with constrains [17]: 0.006 µg/mL; IC50 (µg/ml) with constrains [18]: > 100 µg/mL; IC50 (µg/ml) with constrains [19]: 0.001 µg/mL; IC80 (µg/ml) with constrains [19]: 0.003 µg/mL; IC50 (µg/ml) with constrains [20]: 0.001 µg/mL; IC50 (µg/ml) with constrains [21]: 0.001 µg/mL; IC80 (µg/ml) with constrains [21]: 0.004 µg/mL; IC50 (µg/ml) with constrains [22]: 0.018 µg/mL; IC50 (µg/ml) with constrains [23]: 0.037 µg/mL; IC80 (µg/ml) with constrains [23]: 0.15 µg/mL; IC50 (µg/ml) with constrains [24]: > 100 µg/mL; IC50 (µg/ml) with constrains [25]: 0.004 µg/mL
2 | ePGDM9 (antibody, V domains shown) VH: QAQLVQSGPEVRKPGTSVKVSCKNPGNTLTTYDLHWVRQVPGQGLQWMGWISHEGDKKVIVERFKAKVTIDWDRSTNTAYLQLSGLTSEDTAVYYCAKGSKHRLRDYALYDEDGALNWAVDVDYLANLEFWGQGTAVTVSS VL: DIVLTQSPLSLSVTPGESASISCKSSQSLIHGDRNNYLAWYVQKPGRSPQLLIDLASERASGVPDRFSGSGSRKDFTLKISRVETEDVGTYYCMQGRESPWTFGQGTKVDIK | 0.022 µg/mL | 0.041 µg/mL | 0.164 µg/mL | 0.163 µg/mL | 0.041 µg/mL | 0.163 µg/mL | 0.002 µg/mL | 0.007 µg/mL | 0.009 µg/mL | 0.16 µg/mL | 0.001 µg/mL | 0.002 µg/mL | 0.009 µg/mL | 0.007 µg/mL | 0.029 µg/mL | > 100 µg/mL | 0.023 µg/mL | > 100 µg/mL | 13.3 µg/mL | 0.293 µg/mL | IC80 (µg/ml) with constrains [15]: 1.17 µg/mL; IC50 (µg/ml) with constrains [16]: 0.005 µg/mL; IC50 (µg/ml) with constrains [17]: 0.004 µg/mL; IC50 (µg/ml) with constrains [18]: > 100 µg/mL; IC50 (µg/ml) with constrains [19]: 0.002 µg/mL; IC80 (µg/ml) with constrains [19]: 0.006 µg/mL; IC50 (µg/ml) with constrains [20]: 0.002 µg/mL; IC50 (µg/ml) with constrains [21]: 0.001 µg/mL; IC80 (µg/ml) with constrains [21]: 0.003 µg/mL; IC50 (µg/ml) with constrains [22]: 0.134 µg/mL; IC50 (µg/ml) with constrains [23]: 0.012 µg/mL; IC80 (µg/ml) with constrains [23]: 0.048 µg/mL; IC50 (µg/ml) with constrains [24]: > 100 µg/mL; IC50 (µg/ml) with constrains [25]: 0.002 µg/mL
3 | ePGDM5 (antibody, V domains shown) VH: QAQLVQSGPEVRKPGTSVKVSCKNPGNTLTTYDLHWVRQVPGQGLQWMGWISHEGDKKVIVERFKAKVTIDWDRSTNTAYLQLSGLTSEDTAVYYCAKGSKHRLRDYALYDEDGALNWAVDVDYLANLEFWGQGTAVTVSS VL: DFVLTQSPLSLSVTPGESASISCKSDHSLQHGDRNNYLAWYVQKPGRSPQLLIDLASERASGVPDRFSGSGSRKDFTLKIDRVEAEDVGTYYCMQGRESPWTFGQGTKVDIK | 0.022 µg/mL | 0.043 µg/mL | 0.17 µg/mL | 0.315 µg/mL | 0.065 µg/mL | 0.261 µg/mL | 0.005 µg/mL | 0.021 µg/mL | 0.009 µg/mL | 0.232 µg/mL | 0.001 µg/mL | 0.003 µg/mL | 0.011 µg/mL | 0.021 µg/mL | 0.083 µg/mL | > 100 µg/mL | 0.035 µg/mL | > 100 µg/mL | 8.64 µg/mL | 0.536 µg/mL | IC80 (µg/ml) with constrains [15]: 2.15 µg/mL; IC50 (µg/ml) with constrains [16]: 0.005 µg/mL; IC50 (µg/ml) with constrains [17]: 0.016 µg/mL; IC50 (µg/ml) with constrains [18]: > 100 µg/mL; IC50 (µg/ml) with constrains [19]: 0.001 µg/mL; IC80 (µg/ml) with constrains [19]: 0.005 µg/mL; IC50 (µg/ml) with constrains [20]: 0.002 µg/mL; IC50 (µg/ml) with constrains [21]: 0.001 µg/mL; IC80 (µg/ml) with constrains [21]: 0.004 µg/mL; IC50 (µg/ml) with constrains [22]: 0.011 µg/mL; IC50 (µg/ml) with constrains [23]: 0.013 µg/mL; IC80 (µg/ml) with constrains [23]: 0.051 µg/mL; IC50 (µg/ml) with constrains [24]: > 100 µg/mL; IC50 (µg/ml) with constrains [25]: 0.004 µg/mL
